Reference: article PMC10713552 (Communications Biology, 2023)
Where a chain is given by its changes, count along the chain named.

B1: N3-1_Q (antibody, V domains shown)
VH: QVQLQQWGPGLVNPSETLSLTCSVSGGSFATENYYWSWIRQHPGEGLEWIGNIYFSGNTYYNPSLNNRFTISFDTSKNHLSLKLPSVTAADTAVYYCARGTIYFDQSGYRRVDPFHIWGQGTMVIVSS
VL: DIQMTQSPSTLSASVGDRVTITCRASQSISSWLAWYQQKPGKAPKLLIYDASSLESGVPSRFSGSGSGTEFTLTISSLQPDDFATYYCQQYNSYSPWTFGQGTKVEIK
notes: IgG1
B2: N3-1_V (antibody, V domains shown)
VH: B1 VH with Q106V
VL: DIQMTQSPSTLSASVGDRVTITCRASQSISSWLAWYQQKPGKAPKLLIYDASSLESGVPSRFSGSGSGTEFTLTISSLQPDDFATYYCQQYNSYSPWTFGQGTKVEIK
notes: IgG1
B3: 0335-LN3_T65V (antibody, V domains shown)
VH: B1 VH with T59V, Q106L
VL: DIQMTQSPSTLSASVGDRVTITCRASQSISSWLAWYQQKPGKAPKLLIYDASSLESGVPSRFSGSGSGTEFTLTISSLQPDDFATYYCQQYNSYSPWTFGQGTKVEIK
notes: source: Expi293F, transfected
B4: 0383-YN3_T65K (antibody, V domains shown)
VH: B1 VH with T59K, Q106Y
VL: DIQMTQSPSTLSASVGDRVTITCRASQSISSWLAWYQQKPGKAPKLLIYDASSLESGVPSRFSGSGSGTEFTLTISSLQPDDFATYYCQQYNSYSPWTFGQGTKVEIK
notes: source: Expi293F, transfected
B5: 0327-LN3_T65L (antibody, V domains shown)
VH: B1 VH with T59L, Q106L
VL: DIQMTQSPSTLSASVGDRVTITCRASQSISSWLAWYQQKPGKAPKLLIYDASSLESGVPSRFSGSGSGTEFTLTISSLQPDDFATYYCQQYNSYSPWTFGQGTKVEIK
notes: source: Expi293F, transfected
B6: 0319-LN3_T65A (antibody, V domains shown)
VH: B1 VH with T59A, Q106L
VL: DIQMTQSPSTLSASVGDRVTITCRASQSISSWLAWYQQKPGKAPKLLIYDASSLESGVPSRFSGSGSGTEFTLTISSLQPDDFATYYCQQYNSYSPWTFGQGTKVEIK
notes: source: Expi293F, transfected
B7: 0346-MN3_T65L (antibody, V domains shown)
VH: B1 VH with T59L, Q106M
VL: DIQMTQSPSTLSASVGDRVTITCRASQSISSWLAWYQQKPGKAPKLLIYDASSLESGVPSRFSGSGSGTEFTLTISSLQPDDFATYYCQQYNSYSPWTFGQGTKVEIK
notes: source: Expi293F, transfected
B8: 0386-YN3_T65N (antibody, V domains shown)
VH: B1 VH with T59N, Q106Y
VL: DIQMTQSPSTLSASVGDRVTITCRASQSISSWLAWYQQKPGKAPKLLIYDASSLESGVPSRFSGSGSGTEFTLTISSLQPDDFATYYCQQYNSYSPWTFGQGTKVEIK
notes: source: Expi293F, transfected
B9: 0354-MN3_T65V (antibody, V domains shown)
VH: B1 VH with T59V, Q106M
VL: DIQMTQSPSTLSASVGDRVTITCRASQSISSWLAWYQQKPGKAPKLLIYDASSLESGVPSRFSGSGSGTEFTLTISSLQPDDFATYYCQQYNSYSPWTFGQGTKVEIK
notes: source: Expi293F, transfected
B10: 0358-N3_T65D (antibody, V domains shown)
VH: B1 VH with T59D, Q106R
VL: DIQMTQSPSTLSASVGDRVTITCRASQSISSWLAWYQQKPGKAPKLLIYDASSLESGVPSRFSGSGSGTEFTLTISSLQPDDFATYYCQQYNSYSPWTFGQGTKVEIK
notes: source: Expi293F, transfected
B11: 0379-YN3_T65F (antibody, V domains shown)
VH: B1 VH with T59F, Q106Y
VL: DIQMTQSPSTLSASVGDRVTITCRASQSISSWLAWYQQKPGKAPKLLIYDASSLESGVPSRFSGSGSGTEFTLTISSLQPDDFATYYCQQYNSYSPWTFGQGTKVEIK
notes: source: Expi293F, transfected
B12: 0329-LN3_T65N (antibody, V domains shown)
VH: B1 VH with T59N, Q106L
VL: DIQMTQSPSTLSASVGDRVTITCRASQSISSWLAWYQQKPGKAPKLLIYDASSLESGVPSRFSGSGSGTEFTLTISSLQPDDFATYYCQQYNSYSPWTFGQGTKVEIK
notes: source: Expi293F, transfected
B13: 0371-N3_T65S (antibody, V domains shown)
VH: B1 VH with T59S, Q106R
VL: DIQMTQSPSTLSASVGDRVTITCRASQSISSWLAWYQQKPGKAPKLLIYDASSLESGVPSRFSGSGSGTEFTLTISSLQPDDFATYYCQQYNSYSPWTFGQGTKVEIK
notes: source: Expi293F, transfected
B14: 0352-MN3_T65S (antibody, V domains shown)
VH: B1 VH with T59S, Q106M
VL: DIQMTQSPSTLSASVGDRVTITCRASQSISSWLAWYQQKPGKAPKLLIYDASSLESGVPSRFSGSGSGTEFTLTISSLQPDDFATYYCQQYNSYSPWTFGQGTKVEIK
notes: source: Expi293F, transfected
B15: 0344-MN3_T65I (antibody, V domains shown)
VH: B1 VH with T59I, Q106M
VL: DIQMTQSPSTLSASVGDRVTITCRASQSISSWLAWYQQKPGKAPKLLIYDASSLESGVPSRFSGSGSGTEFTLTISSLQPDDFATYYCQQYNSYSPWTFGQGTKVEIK
notes: source: Expi293F, transfected
B16: 0351-MN3_T65R (antibody, V domains shown)
VH: B1 VH with T59R, Q106M
VL: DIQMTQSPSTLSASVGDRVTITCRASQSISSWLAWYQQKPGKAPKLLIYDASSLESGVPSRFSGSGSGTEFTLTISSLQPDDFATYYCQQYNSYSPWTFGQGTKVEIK
notes: source: Expi293F, transfected
B17: 0362-N3_T65H (antibody, V domains shown)
VH: B1 VH with T59H, Q106R
VL: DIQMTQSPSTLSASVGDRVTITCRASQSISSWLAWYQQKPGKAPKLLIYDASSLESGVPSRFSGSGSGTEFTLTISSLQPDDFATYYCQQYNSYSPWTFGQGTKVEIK
notes: source: Expi293F, transfected
B18: 0367-N3_T65N (antibody, V domains shown)
VH: B1 VH with T59N, Q106R
VL: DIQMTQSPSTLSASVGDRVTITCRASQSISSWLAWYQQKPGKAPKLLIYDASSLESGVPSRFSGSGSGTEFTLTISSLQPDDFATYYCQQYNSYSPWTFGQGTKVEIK
notes: source: Expi293F, transfected
B19: 0363-N3_T65I (antibody, V domains shown)
VH: B1 VH with T59I, Q106R
VL: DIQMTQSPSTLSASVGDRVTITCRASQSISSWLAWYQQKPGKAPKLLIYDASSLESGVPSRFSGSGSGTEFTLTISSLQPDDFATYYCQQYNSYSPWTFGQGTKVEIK
notes: source: Expi293F, transfected
B20: 0378-YN3_T65E (antibody, V domains shown)
VH: B1 VH with T59E, Q106Y
VL: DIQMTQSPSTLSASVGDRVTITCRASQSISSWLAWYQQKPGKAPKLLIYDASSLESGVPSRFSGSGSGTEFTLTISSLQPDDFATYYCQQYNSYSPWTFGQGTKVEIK
notes: source: Expi293F, transfected
B21: 0380-YN3_T65G (antibody, V domains shown)
VH: B1 VH with T59G, Q106Y
VL: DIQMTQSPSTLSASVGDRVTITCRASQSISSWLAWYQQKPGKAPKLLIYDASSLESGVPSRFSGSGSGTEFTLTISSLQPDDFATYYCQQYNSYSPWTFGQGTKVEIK
notes: source: Expi293F, transfected
B22: 0381-YN3_T65H (antibody, V domains shown)
VH: B1 VH with T59H, Q106Y
VL: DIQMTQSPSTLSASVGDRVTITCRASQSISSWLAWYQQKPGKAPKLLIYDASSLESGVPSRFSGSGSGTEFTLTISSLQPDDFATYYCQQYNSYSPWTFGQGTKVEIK
notes: source: Expi293F, transfected
B23: 0349-MN3_T65P (antibody, V domains shown)
VH: B1 VH with T59P, Q106M
VL: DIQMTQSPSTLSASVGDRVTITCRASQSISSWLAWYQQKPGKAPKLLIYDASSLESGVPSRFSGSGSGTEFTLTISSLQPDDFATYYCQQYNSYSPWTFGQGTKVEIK
notes: source: Expi293F, transfected

Target: T1, D614G-Hexapro (WT) spike ectodomain (SARS-CoV-2 Wuhan-Hu-1 D614G, D614G)
Experiment: BLI
Conditions: both partners purified

Compared with B1, B2 is 61-fold higher in kon: 1000 M⁻¹ s⁻¹ for the first, 60900 M⁻¹ s⁻¹ for the second.

With B2 the Kd was 3.78 nM.

In the case of B2, the koff is reported as 0.00023 s⁻¹.

Target: T2, Omicron BA.1 spike protein ectodomain (BLI) (SARS-CoV-2 Omicron BA.1, strain)
Experiment: BLI
Conditions: both partners purified

Compared with B1, B2 is 3.6-fold lower in Kd: 4.8 µM for the first, 1.34 µM for the second. The second binds more tightly here.

Compared with B1, B2 is 2.1-fold lower in koff: 0.015 s⁻¹ for the first, 0.00726 s⁻¹ for the second.

First: B1
Second: B2
The kon of the first is 1.7-fold lower: 3120 M⁻¹ s⁻¹ for the first, 5410 M⁻¹ s⁻¹ for the second.

Target: Omicron BA.2 spike protein ectodomain (BLI) (SARS-CoV-2, Omicron BA.2, strain)
Experiment: BLI
Conditions: both partners purified

B1 and B2 are within 1.5-fold of each other in Kd: 483 nM for the first, 704 nM for the second.

First: B1
Second: B2
The koff of the first is 1.7-fold lower: 0.00403 s⁻¹ for the first, 0.00681 s⁻¹ for the second.

B1 and B2 are within 1.5-fold of each other in kon: 8360 M⁻¹ s⁻¹ for the first, 9670 M⁻¹ s⁻¹ for the second.

Target: Omicron BA.2.12 spike protein ectodomain (BLI) (SARS-CoV-2 Omicron BA.2.12.1, strain)
Experiment: BLI
Conditions: both partners purified

B1 and B2 are within 1.5-fold of each other in Kd: 291 nM for the first, 421 nM for the second.

First: B1
Second: B2
The koff of the first is 1.6-fold lower: 0.00336 s⁻¹ for the first, 0.00542 s⁻¹ for the second.

B1 and B2 are within 1.5-fold of each other in kon: 11500 M⁻¹ s⁻¹ for the first, 12900 M⁻¹ s⁻¹ for the second.

Target: Omicron BA.5 spike protein ectodomain (BLI) (SARS-CoV-2 Omicron BA.5 (BA.4/5 spike), strain)
Experiment: BLI
Conditions: both partners purified

Compared with B1, B2 is 1.9-fold higher in Kd: 771 nM for the first, 1470 nM for the second.

First: B1
Second: B2
The koff of the first is 2.4-fold lower: 0.00666 s⁻¹ for the first, 0.0163 s⁻¹ for the second.

B1 and B2 are within 1.5-fold of each other in kon: 8640 M⁻¹ s⁻¹ for the first, 11100 M⁻¹ s⁻¹ for the second.

Target: T1, D614G-Hexapro (WT) spike ectodomain
Experiment: BLI
Conditions: not given

Going from B3 to B4, the Kd rises from 135 nM to 682 nM (5.1-fold).

B5 and B6 are within 1.5-fold of each other in Kd: 183 nM for the first, 244 nM for the second.

Compared with B7, B8 is 380-fold lower in Kd: 3320 nM for the first, 8.83 nM for the second.

First: B9
Second: B11
The Kd of the first is 6.8-fold lower: 292 nM for the first, 2000 nM for the second.

First: B12
Second: B13
The Kd of the first is 3.2-fold lower: 187 nM for the first, 592 nM for the second. The first binds more tightly here.

Compared with B14, B15 is 240-fold higher in Kd: 6.97 nM for the first, 1670 nM for the second. The first binds more tightly here.

Compared with B16, B17 is 82-fold higher in Kd: 3.87 nM for the first, 318 nM for the second.

Compared with B18, B19 is 65-fold higher in Kd: 1.09 nM for the first, 71 nM for the second.

Compared with B20, B21 is 420-fold higher in Kd: 0.186 nM for the first, 77.3 nM for the second. The first binds more tightly here.

Compared with B22, B23 is 220-fold lower in Kd: 663 nM for the first, 2.97 nM for the second. The second binds more tightly here.

Going from B3 to B4, the koff falls from 0.000502 s⁻¹ to 0.000178 s⁻¹ (2.8-fold).

First: B5
Second: B6
The koff of the first is 1.5-fold higher: 0.00127 s⁻¹ for the first, 0.000836 s⁻¹ for the second.

Going from B7 to B8, the koff rises from 0.000421 s⁻¹ to 0.00138 s⁻¹ (3.3-fold).

Compared with B9, B11 is 5.8-fold lower in koff: 0.00118 s⁻¹ for the first, 0.000202 s⁻¹ for the second.

Compared with B12, B13 is 3.3-fold lower in koff: 0.000519 s⁻¹ for the first, 0.000157 s⁻¹ for the second.

Compared with B14, B15 is 2.8-fold lower in koff: 0.0014 s⁻¹ for the first, 0.0005 s⁻¹ for the second.

Going from B16 to B17, the koff falls from 0.000806 s⁻¹ to 0.00046 s⁻¹ (1.8-fold).

Going from B18 to B19, the koff falls from 0.000175 s⁻¹ to 2.3e-05 s⁻¹ (7.6-fold).

Going from B20 to B21, the koff rises from 0.000168 s⁻¹ to 0.000311 s⁻¹ (1.9-fold).

Compared with B22, B23 is 7.3-fold higher in koff: 0.00016 s⁻¹ for the first, 0.00117 s⁻¹ for the second.

First: B3
Second: B4
The kon of the first is 14-fold higher: 3730 M⁻¹ s⁻¹ for the first, 261 M⁻¹ s⁻¹ for the second.

Compared with B5, B6 is 2-fold lower in kon: 6950 M⁻¹ s⁻¹ for the first, 3430 M⁻¹ s⁻¹ for the second.

First: B7
Second: B8
The kon of the first is 1200-fold lower: 127 M⁻¹ s⁻¹ for the first, 156000 M⁻¹ s⁻¹ for the second.

Compared with B9, B10 is 23-fold lower in kon: 4030 M⁻¹ s⁻¹ for the first, 174 M⁻¹ s⁻¹ for the second.

Going from B11 to B12, the kon rises from 101 M⁻¹ s⁻¹ to 2780 M⁻¹ s⁻¹ (28-fold).

First: B13
Second: B14
The kon of the first is 760-fold lower: 265 M⁻¹ s⁻¹ for the first, 201000 M⁻¹ s⁻¹ for the second.

Compared with B15, B16 is 700-fold higher in kon: 299 M⁻¹ s⁻¹ for the first, 208000 M⁻¹ s⁻¹ for the second.

Going from B17 to B18, the kon rises from 1450 M⁻¹ s⁻¹ to 160000 M⁻¹ s⁻¹ (110-fold).

Compared with B19, B20 is 2800-fold higher in kon: 324 M⁻¹ s⁻¹ for the first, 906000 M⁻¹ s⁻¹ for the second.

Compared with B21, B22 is 17-fold lower in kon: 4020 M⁻¹ s⁻¹ for the first, 242 M⁻¹ s⁻¹ for the second.

B23 gave a kon of 392000 M⁻¹ s⁻¹.

Target: T2, Omicron BA.1 spike protein ectodomain …
Experiment: BLI
Conditions: not given

B3 and B4 are within 1.5-fold of each other in Kd: 49.2 nM for the first, 50.6 nM for the second.

B5 and B6 are within 1.5-fold of each other in Kd: 58.6 nM for the first, 59.6 nM for the second.

B7 and B8 are within 1.5-fold of each other in Kd: 64.2 nM for the first, 66.3 nM for the second.

B9 and B10 are within 1.5-fold of each other in Kd: 67.6 nM for the first, 68.8 nM for the second.

B11 and B12 are within 1.5-fold of each other in Kd: 89.3 nM for the first, 98.7 nM for the second.

B13 and B14 are within 1.5-fold of each other in Kd: 108 nM for the first, 124 nM for the second.

B15 and B16 are within 1.5-fold of each other in Kd: 151 nM for the first, 175 nM for the second.

Going from B17 to B18, the Kd rises from 378 nM to 642 nM (1.7-fold). The first binds more tightly here.

B19 and B20 are within 1.5-fold of each other in Kd: 1580 nM for the first, 1740 nM for the second.

First: B21
Second: B22
The Kd of the first is 1.6-fold lower: 4980 nM for the first, 8040 nM for the second.

B23 showed a Kd of 8260 nM.

Compared with B3, B4 is 2-fold lower in koff: 0.00196 s⁻¹ for the first, 0.00099 s⁻¹ for the second.

First: B5
Second: B6
The koff of the first is 1.6-fold lower: 0.00147 s⁻¹ for the first, 0.00229 s⁻¹ for the second.

First: B7
Second: B8
The koff of the first is 4.8-fold higher: 0.00252 s⁻¹ for the first, 0.00052 s⁻¹ for the second.

Going from B9 to B10, the koff falls from 0.00153 s⁻¹ to 0.000857 s⁻¹ (1.8-fold).

B11 and B12 are within 1.5-fold of each other in koff: 0.00105 s⁻¹ for the first, 0.000925 s⁻¹ for the second.

Compared with B13, B14 is 1.5-fold higher in koff: 0.00113 s⁻¹ for the first, 0.0017 s⁻¹ for the second.

B15 and B16 are within 1.5-fold of each other in koff: 0.0026 s⁻¹ for the first, 0.00187 s⁻¹ for the second.

Going from B17 to B18, the koff rises from 0.00114 s⁻¹ to 0.00176 s⁻¹ (1.5-fold).

Going from B19 to B20, the koff falls from 0.00106 s⁻¹ to 0.000439 s⁻¹ (2.4-fold).

B21 and B22 are within 1.5-fold of each other in koff: 0.00218 s⁻¹ for the first, 0.00217 s⁻¹ for the second.

B23 was tested, and the koff was 0.00219 s⁻¹.

Compared with B3, B4 is 2-fold lower in kon: 39700 M⁻¹ s⁻¹ for the first, 19600 M⁻¹ s⁻¹ for the second.

Compared with B5, B6 is 1.5-fold higher in kon: 25100 M⁻¹ s⁻¹ for the first, 38400 M⁻¹ s⁻¹ for the second.

First: B7
Second: B8
The kon of the first is 5-fold higher: 39200 M⁻¹ s⁻¹ for the first, 7850 M⁻¹ s⁻¹ for the second.

Going from B9 to B10, the kon falls from 22700 M⁻¹ s⁻¹ to 12500 M⁻¹ s⁻¹ (1.8-fold).

B11 and B12 are within 1.5-fold of each other in kon: 11700 M⁻¹ s⁻¹ for the first, 9380 M⁻¹ s⁻¹ for the second.

B13 and B14 are within 1.5-fold of each other in kon: 10400 M⁻¹ s⁻¹ for the first, 13700 M⁻¹ s⁻¹ for the second.

Compared with B15, B16 is 1.6-fold lower in kon: 17200 M⁻¹ s⁻¹ for the first, 10700 M⁻¹ s⁻¹ for the second.

B17 and B18 are within 1.5-fold of each other in kon: 3020 M⁻¹ s⁻¹ for the first, 2740 M⁻¹ s⁻¹ for the second.

Going from B19 to B20, the kon falls from 673 M⁻¹ s⁻¹ to 253 M⁻¹ s⁻¹ (2.7-fold).

Compared with B21, B22 is 1.6-fold lower in kon: 438 M⁻¹ s⁻¹ for the first, 269 M⁻¹ s⁻¹ for the second.

B23 gave a kon of 265 M⁻¹ s⁻¹.
